# Source: patent US20260258115A1 (MAPP BIOPHARMACEUTICAL, published 2026)
# Residue numbers refer to the chain shown, from its start.
# B1: ADI-21064 (antibody, V domains shown)
# VH: EVQLVESGGEVKKPGASVKVSCKASGYIFSNHGVSWVRQAPGQGLEWMGWISAYNGNAIYAQNLQGRVTLTTDTSTSTAYMELTSLTSDDTAIYYCARESGATAAAVMDYWGQGTLVTVSS
# VL: DIVLTQTPLSLPVILGQPASISCRSSQSLVYSDGNTYLTWFQQRPGQSPRRLIYKVSNRDSGVPDRFSGSGSDTDFTLKISRVEAEDVGVYYCMQGIDWPRTFGQGTKVDIK
# B2: ADI-21072 (antibody, V domains shown)
# VH: QVQLVQSGGGLVKPGGSLRLSCEASGFNFRSYHMSWVRQAPGKGLEWVSSITAGSSYINYADSVKGRFTISRDNAKNSVFLQMNSLSAEDTAVYYCAREGLNMGVGGTWFDPWGQGTLVTVSS
# VL: QAVVTQEPSVSGAPGQRVTISCTGSSSNIGAGYDVHWYQQLPGTAPKLLIYGNNNRPSGVPDRFSGSKSATSASLAITGLQADDEADYYCQSYDRSLSGSWVFGTGTKVTVL
# B3: ADI-21077 (antibody, V domains shown)
# VH: QVQLVESGGGLVKPGGSLRLSCVVSGFTFRDYYMSWIRQAPGKGLEWISYISPSSTYTNYADSVRGRFTISRDNAENSLYLQMNSLRAEDTAVYYCARVNIAATGAGGVFLDYWGQGTTVTVSS
# VL: B2 VL with A2P, V4L, E7P, T23A, N54I, A70G, D83E, R95S, W101Y
# B4: ADI-21082 (antibody, V domains shown)
# VH: EVQLVESGGGLVKPGGSLKLSCVASGLKFSSYSMNWVRQAPGKGLEWVSSVSAGSSYTNYADSVKGRFTISRDNAKNSLYLQMNSLRVDDTAVYYCATERCSGGSCYLHGFDPWGQGTTVTVSS
# VL: QSVLTQPPSVSGAPGQRVTISCTGSSSNIGAGYDVHWYQQLPGTAPKLLIFDNIIRPSGVPDRFSGSKSGTSASLAITGLQADDEADYYCQSYDKSGDYVFGTGTKVTVL
# B5: ADI-21079 (antibody, V domains shown)
# VH: EVQLLESGGGLVKPGGSLRLSCAASGFTFSDYYMSWIRQAPGKGLEWVSNISGGSTYTNYADSVKGRFTISRDNAKNSLYLQMNSLRAEDTAVYYCAREAYGSGNYYNPNWLDPWGQGTLVTVSS
# VL: QSVLTQPPSVSGAPGQRVTISCTGSSSNIGAGYDVHWYQQLPGTAPKLLIYGNRNRPSGVPDRFSGSKSGTSASLAITGLQAEDEADYYCQSYDSSLSGSVFGGGTKLTVL
# B6: ADI-21081 (antibody, V domains shown)
# VH: EVQLLESGGGLVKPGGSLRLSCAASRFAFSNYYMTWIRQAPGKGLEWISNISGGSTFTNYADSVKGRFTISRDNAKNSVHLQMNSLRAEDTAVYYCVREASVAAGTPEGFDIWGQGTMVTVSS
# VL: B5 VL with T19I, H36N, I50M, P57A, Q91H, S98G
# notes: also called Ab 326
# B7: ADI-21075 (antibody, V domains shown)
# VH: EVQLVESGGGLVKPGGSLRLSCAASGFSFSNYYMSWVRQAPGKGLEWISYISGGSTYANLADSVKGRFTISRDNTKNSMYLQMTSLRPDDTAVYYCARIHGTHGPFYFDYWGQGTLVTVSS
# VL: QSVLTQPPSVSGAPGQRVTISCTGSSSNIGAGYDVHWYQQLPGTAPKLLIHANSNRPSGVPDRFSGSKSGTSASLAITGLQAEDEADYYCQSYDNSLNAYYVFGTGTKLTVL
# notes: also called Ab 320
# B8: ADI-41453 (antibody, V domains shown)
# VH: QVQLVQSGAEVRKPGASVKVSCKASGYTFSIYDMNWVRQAPGQGLEWMGWMNPNSGNTGYAQKFQGRVTMTGDTSISTAYMELSSLTSEDTAVYYCAVMYGDYPGYWGQGSLVTVSS
# VL: SYELTQPLSVSVALGQTARITCGGNNIGSKSVHWYQQKPGQAPVLVIYRDAKRPSGIPERFSGSNSGNTATLTISGAQAGDEADYYCQVWDSNAWIFGGRTKLTVL
# notes: IgG1; also called Ab 737
# B9: ADI-41451 (antibody, V domains shown)
# VH: EVQLVESGGGLVQPGGSLRLSCAAAGFTFNNYEMHWVRQAPGKGLEWVSCVTSSGTATYYADSVKGRFTVSRDNAKKSLQLQMNSLRAEDTAVYYCARELYLGEDYYYGLDVWGQGTTVTVSS
# VL: SYELTQPPSVSVSPGQTASISCSGDKLRNKHTCWYQHKSGQSPVLLIYQDNRRPSGIPDRLSGSKSGTTATLTISWTQAMDEAEYYCQAWDSNSAVIFGGGTKLTVL
# notes: IgG1; also called Ab 735
# B10: ADI-41840 (antibody, V domains shown)
# VH: QVQLVQSGAEVKKPGSSVKVSCKASGDTFSGYAIYWVRQAPGRGLELMGGIIPILGTSSYAQRFLGRTSFTADESTSTAYMDLSSLTSADTAMYYCARKRVTVPVPFDSWGQGTLVTVSS
# VL: EIVMTQSPATLSVSPGERATLSCRASQSVSSNLAWYQQKLGQAPRLLIYGASTRATDIPARFSGSGSGTEFTLTISSLQSEDFVVYYCQQYNNWPWTFGQGTKVEIK
# B11: ADI-41816 (antibody, V domains shown)
# VH: QVQLVQSGAEVKKPGASVKVSCEASGYTFTDSYIHWVRQAPGQGLEWMGWINPNSGGTNYAQKFQGRVTMTRDTSTSTAFIELSRLRSDDTAVYYSARGVRQQWLVNTGDPDYYFDFWGQGTLVTVSS
# VL: SYVLTQPPSVSVSPGQTASITCSGDKLGDKYSCWYQQKPGQSPVLVIYQDYKRPSGIPERFSGSNSGNTATLTISGTQAMDEADYYCQAWDRNAGVFGTGTKLTVL
# B12: ADI-41830 (antibody, V domains shown)
# VH: QVQLVQSGPAVKKPGASVKVSCKASGYIFTSYGVSWVRQAPGQGLEWMGWISGYNGNTDYAQKFQGRVTLTVDSSTGTVYMDLRSLRSDDTAIYYCARAPPLPGQVYDGAGSYLLHGYWGQGTLVTVSS
# VL: not shown
# B13: ADI-41831 (antibody, V domains shown)
# VH: EVQLLESGGGLVKPGGSLRLSCAASGFTFSSYAMHWVRQPPGKGLEWVSSISASSSFINYADSVKGRFTISRDGARNSLYLQMNSLRAEDTAVYYCVREDYDSSGYGLHWFDPWGQGTTVTVSS
# VL: B5 VL with Q1S, S2Y, L41F, I50M, R54T, S95R, S100W
# B14: ADI-43640 (antibody, V domains shown)
# VH: QVQLVQSGGGLVKPGGSLRLSCAASGFTFSSYSMNWVRQAPGKGLEWVSSISSSSSYIYYADSVKGRFTISRDNAKNSLYLQMNSLRAEDTAVYYCAREGRDGYNYNFDYWGQGTLVTVSS
# VL: B5 VL with L4V, R54S, S100V
# B15: ADI-41835 (antibody, V domains shown)
# VH: EVQLLESGGGLVQPGGSLRLSCAASGFTFSSYAMNWVRQAPGKGLEWVSIISDSGGSTYYADSVKGRFTISRDNSKNTLYLQMNSLRAEDTAVYYCAKATPLKWELLIGSTPGYYFDYWGQGTTVTVSS
# VL: SYELTQLPSVSVSPGQTASITCSGDKLGDKYACWYQQKPGQSPVVIMYQDNKRPSGIPERFSGSNSGNTATLTISGTQAMDEADYYCQAWDSSTGVFGGGTKVTVL
# B16: ADI-41829 (antibody, V domains shown)
# VH: EVQLVESGGGLVKPGGSLRLSCAASGFTSSGYNMNWVRQAPGKGLEWVSSISGSSSYIHYADSVKGRFTISRDNAKNSLYLQMNSLRAEDTAVYYCATVGALPGHFDNWGQGTLVTVSS
# VL: QAVVTQEPSVSGAPGQRVTISCTGSSSNIGAGYDVHWYQQLPGTAPKLLIYDNTNRPSGVPDRFSGSKSGTSASLAITGLQAEDEADYYCQSYDSRLTYVFGTGTKVTVL
# B17: ADI-41834 (antibody, V domains shown)
# VH: EVQLLESGGRLVQPGRSLRLSCAASGFTVSGSYMSWVRQAPGKGLEWVSVIYIDGGTKYADSVKGRFTISRDNSKNTVYLQMNSLRAEDTAVYYCARDSSLWYRGGDYWGQGTLVTVSS
# VL: DIQMTQSPSSLSASVGDRVTITCQANHDISNYLNWYQQKPGKAPKLLIYDASILEAGVPSRFSGSGSGTHFTFTISSLQPEDIATYYCQQFDFRALTFGGGTKVEIK
# B18: ADI-41832 (antibody, V domains shown)
# VH: EVQLVESGGGLVQPGGSLRLSCAASGFTFSKYAMNWVRQAPGKGLEWVSSISDSGDSRYYADSVKGRFTISRDSSKNTLNLQMNSLRAEDTAVYYCAKAGWELFSPQGAFDLWGQGTMVTVSS
# VL: EIVMTQSPGTLSLSPGERATLSCRASQSVSSSHLAWYQQKPGQAPRLLIYGASSRDSGIPDRFSGSGSGTDFTLSISRLEPEDFAVYYCQHYGNSPYTFGQGTKVDIK
# B19: ADI-21065 (antibody, V domains shown)
# VH: EVQLLESGGGLVQPGGSLRLSCAASGFTFSSYAMNWVRQAPGKGLEWVSGISGSGESTYYADSVKGRFTISRDSSKNTVYLQMNSLRADDTAVYYCAKDQGYGVVVPAATRALPPRRYGMDVWGQGTTVTVSS
# VL: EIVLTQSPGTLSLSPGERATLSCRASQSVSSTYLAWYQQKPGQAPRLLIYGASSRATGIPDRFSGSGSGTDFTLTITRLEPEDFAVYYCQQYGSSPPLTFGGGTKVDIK
# Target: RSV F on recombinant mKate-RSV A2 virus (Respiratory syncytial virus A2, UniProt P03420 26-574)
# Experiment: cell-based or functional assay
row,Binder,Neut IC50 (ug/ml) subtype A [µg/mL]
1,B1,0.03
2,B2,0.04
3,B3,0.06
4,B4,0.09
5,B5,0.2
6,B6,0.1
7,B7,0.03

# Target: RSV F on recombinant mKate-RSV B 18537 virus (Respiratory syncytial virus B 18537, UniProt P13843 26-574)
# Experiment: cell-based or functional assay
row,Binder,Neut IC50 (ug/ml) subtype B [µg/mL]
1,B1,0.12
2,B2,0.33
3,B3,0.06
4,B4,0.25
5,B5,0.29
6,B6,0.32
7,B7,0.48

# Target: RSV fusion glycoprotein (RSV F) on RSV-A2 virus (respiratory syncytial virus, UniProt P03420 26-574)
# Experiment: cell-based or functional assay
row,Binder,Neutralization IC50 (RSV subtype A) [µg/mL]
1,B8,> 25
2,B9,0.84

# Target: RSV F on RSV subtype A virus (RSV-A2) (Respiratory Syncytial Virus, subtype A, …, UniProt P03420 26-574)
# Experiment: cell-based or functional assay
row,Binder,Neutralization IC50 (RSV subtype A) [µg/mL]
1,B10,> 25
2,B11,0.91
3,B12,0.12
4,B13,5.21
5,B14,> 25
6,B15,0.45
7,B16,0.12
8,B17,0.07
9,B18,0.19

# Target: T1, RSV postfusion F, subtype B (postF trimer) (Respiratory syncytial virus subtype B, UniProt P13843 26-513)
# T1 construct: also called Postfusion subtype B
# Experiment: BLI, IgG apparent affinity
Binder,binding result,Kd [nM]
B1,no binding,–
B2,no binding,–
B3,no binding,–
B4,–,6.17
B19,no binding,–
B5,no binding,–
B6,no binding,–
B7,no binding,–

# Target: RSV prefusion F (preF), DS-Cav1 (respiratory syncytial virus, UniProt P03420 26-513)
# Experiment: BLI, IgG on sensor, 100 nM antigen
row,Binder,Kd [nM]
1,B8,2.17
2,B9,1.82

# Target: RSV postfusion F (postF), F deltaFP (respiratory syncytial virus, UniProt P03420 26-513)
# Experiment: BLI, IgG on sensor, 100 nM antigen
row,Binder,Kd [nM]
1,B8,0.403
2,B9,1.67
